Results reported in the DeepSol protein solubility set.

Experiment: soluble on expression in E. coli; label from the status in PepcDB or PDB records

Sequence | soluble on expression in E. coli
MTMEKGMSSGEGLPSRSSQVSAGKITAKELETKQSYKEKRGGFVLVHAGAGYHSESKAKEYKHVCKRACQKAIEKLQAGALATDAVTAALVELEDSPFTNAGMGSNLNLLGEIECDASIMDGKSLNFGAVGALSGIKNPVSVANRLLCEGQKGKLSAGRIPPCFLVGEGAYRWAVDHGIPSCPPNIMTTRFSLAAFKRNKRKLELAERVDTDFMQLKKRRQSSEKENDSGTLDAVGAVVVDHEGNVAAAVSSGGLALKHPGRVGQAALYGCGCWAENTGAHNPYSTAVSTSGCGEHLVRTILARECSHALQAEDAHQALLETMQNKFISSPFLASEDGVLGGVIVLRSCRCSAEPDSSQNKQTLLVEFLWSHTTESMCVGYMSAQDGKAKTHISRLPPGAVAGQSVAIEGGVCRLESPVN | soluble
MTMSELGSLFEAGYHDILQLLAGQGKSPSGPPFARYFGMSAGTFEVEFGFPVEGGVEGSGRVVTGLTPSGKAASSLYIGPYGEIEAVYDALMKWVDDNGFDLSGEAYEIYLDNPAETAPDQLRTRVSLEHHHHHH | not soluble
MTMTPVSDPIPIGNQEDKENIEDAENTMNISPACDRILVDHQYTRDVVITGKCSSLTYKKA | not soluble
MTNDVEMKSETEELPPFPTVHILQVVKDAQQQHGLRHGDYARYRKYCAAKLERMRKALKFTNSHNCQKKRKAKFVKKWLSVESVQNVQFLNFGIFESERRYAEAMIDKITLEDNPEKSRKKFSMINSLRKAVLHATNLEKIVQESERFDAPTKLEAQAYAAWMRGMCSFESRNWQKASESLKLAKTVYEKLAEATNNTTLSSIFKGRCREIQPQLRLCEFNIAESPGAVGTMTELMELRMQMGEGGDSSVDKLISEMRASATSAEVVTIEWGGAKSTVDDEKAKQVVQEWKQTEVELAQCQTPKEKMALFEKATADTRDAIDRISDIIRRKSSENADTTVLQSIKAYLEFLKMNGTASRYLAIIDNTKSEKKSKPQDLLRLYDSVIEIYKEVAEIPGADHDKNLIQAFEVKVEYYRAFRCFYMASSYSALHKYSEAAALFDRTVSRVQDAEGKLKKLKSSSFITNETQSSLNELRSEVESAKVTVRAARLASAAGDVKTDSELAKIIDKRPLLETVNEWRQWDVRNSLKDKKTIPVASLPPAFIPMPNKPIFFDLANFHLTMPNVDDRLEKLQKDRDATPKKAAKGSSAAAASSKTSNQEEEEQQGLTGMLSGWKKSFWGNK | not soluble
MTNELLIEIGTEELPAGVINPALDYLKDKINSLLNARQVKTYGTPRRLTLYFKDFENERKEKKEVIWGPPKNVAYDEKGNPTKALEGFLKKNNASLEEVKVLKKDKGEYVAIVRKVIEKSPIEKLQEEFEEILLSVPFPKRMRWTSSKRITFSRPVRWILALFNGQVLKLRFGELESSNKTYGHRFLSKGEVTINNPADYEKTLKEHYVIPDFNERKEIILRALEKSSQEVGGKPSYPEGLVEEVTNLVEYPFPVLGKFDEKYLELPPLVITTVAAHHQRFFCFEKDGKLLNYFLGISNNKPNEKIKEGYEKVLRARLEDALFFYREDLKKDLKSLIPELKKVLFHPKVGSMYEKEERMEKIAQKLCPLLKCEWEKVKEAVWLSKVDLLTEMVKELDELQGYMGYVYAKAQGYDEEVAKALWEQYFPRSLEDKVPETTTGTILSLSDKIDNLYSFFKAGEIPKGSSDPYGLRRSAFGIIKIVDVKNLDLNLEDFKEIYGEFKQYPKLVEFLKQRLISYLEDYPVDIVRAVLNVYSPMEPYKVINSVRVLYEASKSPEFPSVVEAAKRVIRIIPKDWKNYEVDEKLLSEEAERELYQKLTEFENKELKSPLELLPLKEYIDKFFDNVKVMAEDEKIRNNRISLLKRVENLFRTFGDFNEIVIKEG | soluble
MTNNQTLDILLDVYAYNHAFRIAKALPNIPKTALYLLEMLKERRELNLAFLAEHAAENRTIEDQYHCSLWLNQSLEDEQIANYILDLEVKVKNGAIIDFVRSVSPILYRLFLRLITSEIPNFKAYIFDTKNDQYDTWHFQAMLESDHEVFKAYLSQKQSRNVTTKSLADMLTLTSLPQEIKDLVFLLRHFEKAVRNPLAHLIKPFDEEELHRTTHFSSQAFLENIITLATFSGVIYRREPFYFDDMNAIIKKELSLWRQSIV | not soluble
MTNVCDLTDRKCKPCEGGVPPLEMEEAEKLLKQLEQGWQLADNKISRTFSFKNYYQTMAFVNAIAWVSHREDHHPDMMVGYDWCRVEYMTHAIGGLSENDFICAAKVDMLFKS | not soluble
MTNWLIAYQGEPGAYSEIAALRFGEPLPCESFDDVFSAVTEQKADYAVIPIENSLGGSIHQNYDLLLRRPVVILAETFVKVEHCLLGLPGASVETATKAMSHPQALVQCHNFFATHPQIRAEAAYDTAGSAKMVAESRDKSALAIASKRAGELYGLDILKENLADEEWNITRFFCIAHENNPDISHLKVRPDVARQKTSIVFALPNEQGSLFRALATFALRGIDLTKIESRPSRKKAFEYLFYADFIGHREDQNVHNALENLREFATMVKVLGSYGVVNP | soluble
MTPEALSFWTQADKPFLFLAACIELTNALAYGPGYVCGLPCSWDGSCSGAQHLCAATRSEDAWKVNLIGNDEVHDLYTIVGNAAKQSMARDTDPMVSTILAYEGDWRKVFKRNTMTTFYGSKGFGMAQQHMDDLMEPLSREVMQKKRAKHPFGQTRKEHHAASRLLAAHAAAAIKGEIPLAIKAMEFIQKLSAMMAHEGKPLEWTTPIGLPWSNRYHDPVTERVNLWMHDHGVRRPFRPVVADGYKKTINKNHSVNGSAPNFVHACDAAHLLRTVNAARAEGITQFALVHDSFGSLPSHAARFRQIIREEFVRMYEEHDVLTEVLEQAKCDLDEHNDKLSALVDMRADLTGKLNIKEVLNAEYAFAYPKLSEPDTKGEYADGKYKTEGTATEDYTERFQEEIQKVADDNFPGKKNVHLPWKETKEGDIAFIFKNPKKKPILTDSRGKPLKEGTVIRGGSKIRIAGVIAAWEKGAKRGVSLWPDAVRVIKLSEGFDANAAFGAAEDGFNADDYEPTNFGNDGEDADNDADDAEAGDDAFKLLEHHHHHH | not soluble
MTPEAPYASLTEIEHLVQSVCKSYRETCQLRLEDLLRQRSNIFSREEVTGYQRKSMWEMWERCAHHLTEAIQYVVEFAKRLSGFMELCQNDQIVLLKAGAMEVVLVRMCRAYNADNRTVFFEGKYGGMELFRALGCSELISSIFDFSHSLSALHFSEDEIALYTALVLINAHRPGLQEKRKVEQLQYNLELAFHHHLCKTHRQSILAKLPPKGKLRSLCSQHVERLQIFQHLHPIVVQAAFPPLYKELFST | soluble
MTPGGQAQIGNVDLVKQLNSAAVYRLIDQYGPISRIQIAEQSQLAPASVTKITRQLIERGLIKEVDQQASTGGRRAISIVTETRNFHAIGVRLGRHDATITLFDLSSKVLAEEHYPLPERTQQTLEHALLNAIAQFIDSYQRKLRELIAISVILPGLVDPDSGKIHYMPHIQVENWGLVEALEERFKVTCFVGHDIRSLALAEHYFGASQDCEDSILVRVHRGTGAGIISNGRIFIGRNGNVGEIGHIQVEPLGERCHCGNFGCLETIAANAAIEQRVLNLLKQGYQSRVPLDDCTIKTICKAANKGDSLASEVIEYVGRHLGKTIAIAINLFNPQKIVIAGEITEADKVLLPAIESCINTQALKAFRTNLPVVRSELDHRSAIGAFALVKRAMLNGILLQHLLEN | soluble
MTPVQLKNYLEQLVGNQIKTSTMIWGPPGIGKSSIVAQIAEEGKLRFIDLRLSQLAPTDLRGLPVAIPTSKTKPQTGTSAWYPPEFLPKDGAGILFLDELNMAPPAMQGVAQQLILDRRVGSYEVPTDWFIWAAGNRKEDRASVFEMPAPLANRFLHLDVQPDFESFKQYALEQKYHEQVIAFLSFRPGLIHKLDLQRPAWPSPRSWAIANGLHQVNLDVSPAVGEGCAAEFSAFVQLYKDLPDLEAIFRGQGQNIGFPTEPSSGYASTIGLAVRAKDATAGVNAFHWLTDKADSEWVQLFVTDMAGQLRRAGHLGALSIMAKKEPKLKQFMQGYQELLAILEHHHHHH | soluble
MTQETFTATTRVKRGLADMLKGGVIMDVVTPEQARIAEDAGASAVMALERVPADIRAQGGVARMSDPDLIEGIVNAVSIPVMAKARIGHFVEAQILESLGVDFIDESEVLSPADYVNHIDKWNFDVPFVCGATNLGEALRRITEGAAMIRSKGEAGTGDVSEAVKHLRTIRGEINRLRSMDEDQLYVAAKEIQAPYDLVREVAATGKLPVTLFVAGGVATPADAALVMQMGAEGVFVGSGIFKSGNPAARAAAIVKATTMYDDPAAIAEVSRGLGEAMVGINVADVPAPHRLAERGW | not soluble
